{
  "source": "paper PMC4038516",
  "about": "“Crystal Structure of Penicillin-Binding Protein 3 (PBP3) from Escherichia coli” (PLoS ONE, 2014)",
  "key": {"[1]": {"target": "the molecule itself", "test": "dynamic light scattering + other: static light scattering; PBP3_(88–165), batch mode, 20°C, buffer and concentration as for crystallogenesis (7.5 mg/ml, 0.15 M NaCl, 0.1 M Tris pH 8, 1 mM EDTA)"}, "[2]": {"target": "the molecule itself", "test": "dynamic light scattering + other: static light scattering; PBP3_(57–577), batch mode, 20°C, buffer and concentration as for crystallogenesis (18 mg/ml, 0.5 M NaCl, 20 mM Tris pH 8)"}},
  "data": [
    {"protein": "PBP3_(88–165), Val88-Ser165 subdomain of Escherichia coli PBP3, strep-tag removed (domain or fragment, UniProt P0AD68 88-165, looked up, The tag is said to be removed before crystallization; Residues of the vector may remain at the N-terminus after the tag was removed; A selenomethionine form was used for phasing only; also called PBP3 Val88-Ser165 subdomain; source: E. coli C41(DE3) with pDML2042 (pET-52b(+)), purified (Strep-Tactin column), strep-tag removed; not shown: Strep-tag, N-terminal, cleaved) VKAIWADPKEVHDAGGISVGDRWKALANALNIPLDQLSARINANPKGRFIYLARQVNPDMADYIKKLKLPGIHLREES", "values": [
      {"measurement": "stoichiometry N", "setting": "[1]", "value": 2}
    ]},
    {"protein": "PBP3_(57–577), soluble periplasmic form of Escherichia coli penicillin-binding protein 3 (domain or fragment, UniProt P0AD68 57-577, looked up, the ftsI gene encodes 588 residues and 11 C-terminal residues are removed by proteolytic cleavage; No tag is mentioned; also called FtsI; periplasmic domain of PBP3; source: E. coli W3110M (plasmid pDML232, with pDML237 for SecB), purified (S-Sepharose twice, Superdex 200)) GDMRSLRVQQVSTSRGMITDRSGRPLAVSVPVKAIWADPKEVHDAGGISVGDRWKALANALNIPLDQLSARINANPKGRFIYLARQVNPDMADYIKKLKLPGIHLREESRRYYPSGEVTAHLIGFTNVDSQGIEGVEKSFDKWLTGQPGERIVRKDRYGRVIEDISSTDSQAAHNLALSIDERLQALVYRELNNAVAFNKAESGSAVLVDVNTGEVLAMANSPSYNPNNLSGTPKEAMRNRTITDVFEPGSTVKPMVVMTALQRGVVRENSVLNTIPYRINGHEIKDVARYSELTLTGVLQKSSNVGVSKLALAMPSSALVDTYSRFGLGKATNLGLVGERSGLYPQKQRWSDIERATFSFGYGLMVTPLQLARVYATIGSYGIYRPLSITKVDPPVPGERVFPESIVRTVVHMMESVALPGGGGVKAAIKGYRIAIKTGTAKKVGPDGRYINKYIAYTAGVAPASQPRFALVVVINDPQAGKYYGGAVSAPVFGAIMGGVLRTMNIEPDALTTGDKNEFV", "values": [
      {"measurement": "stoichiometry N", "setting": "[2]", "value": 2}
    ]}
  ]
}
